These results are taken from publication PMC10764958.

Broadly, the Kd is the free concentration of one partner at which half of the binding sites on the other are occupied at equilibrium, for simple one-to-one binding. Lower therefore signals a tighter complex.

This data set concerns the target SARS2-NP SIM1A (poly-SUMOylated) (SARS-CoV-2) (UniProt P0DTC9). The experiment in a line: MST. Conditions: MST: PBS with 0.05% Tween, room temperature.

Take “CACUCGCUAUGUCGAUAACAACUUCUGUGGCCCUGAUGGCUACCCUCUUGAGUGCAUUAAAGA [Cy5-RNA (SARS-CoV-2 RNA)]”: the Kd was determined as 2.71 nM.
